Drawing on patent publication US20230287458, “RECOMBINANT ADENO-ASSOCIATED VIRAL […] FOR […] GENE […]” (Abeona Therapeutics Inc., published 2023), this text covers activity for one molecule.

This data set concerns the target Cre recombinase (UniProt P06956 P06956:1-343). The data set can be described thus: cell_activity; Lox66 partner site of Lox71 in same experiment; full-length ABCA4 mRNA relative to the pair without Cre. Particulars: tags: NLS; expressed from the 5' ABCA4 vector after T2A self-cleavage; chain copies: 4. From the text:
We quantified the expression levels of full-length ABCA4 mRNA in cells transfected with various plasmids.

Chain of Cre recombinase (P06956 whole entry, one chain of several): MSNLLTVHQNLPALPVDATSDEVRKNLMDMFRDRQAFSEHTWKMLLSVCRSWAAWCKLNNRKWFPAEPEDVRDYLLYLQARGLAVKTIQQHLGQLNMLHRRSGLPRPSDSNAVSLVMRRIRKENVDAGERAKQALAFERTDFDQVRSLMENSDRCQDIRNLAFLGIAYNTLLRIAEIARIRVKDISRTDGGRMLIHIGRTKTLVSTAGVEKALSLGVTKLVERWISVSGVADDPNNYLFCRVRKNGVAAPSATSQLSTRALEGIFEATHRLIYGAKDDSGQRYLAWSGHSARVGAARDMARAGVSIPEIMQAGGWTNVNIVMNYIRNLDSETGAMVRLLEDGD

B1: Lox66 (dsDNA)
DNA 1: ATAACTTCGTATAATGTATGCTATACGAACGGTA
DNA 2: TACCGTTCGTATAGCATACATTATACGAAGTTAT
As for B1, the activity was roughly 55 fold.
